Measurements taken from patent publication US20170088632A1 (OMEROS, published 2017).

What was measured:
[1] = biological target: T1, human MASP-2A (catalytically inactive human MASP-2, Ser618 to Ala618) (human, UniProt O00187 16-686); assay: Biacore, microscale-expressed scFv on MASP-2A coated CM5 chip
T1 construct: the ELISA and Biacore methods say only 'MASP-2A', so a tag may have been present; also called huMASP2A; huMASP-2A
Method: Therefore, three different scFv libraries were constructed by PCR where the amino acid positions 1, 2 and 3 were randomized to the set of all possible 20 amino acids using degenerate codons. After cloning the libraries, microscale expression was performed and scFv binding was monitored on a MASP-2A coated CM5 chip (not shown).

[2] = biological target: T2, human MASP-2 (human, UniProt O00187 16-686); assay: cell-based or functional assay
T2 sequence (O00187 16-686): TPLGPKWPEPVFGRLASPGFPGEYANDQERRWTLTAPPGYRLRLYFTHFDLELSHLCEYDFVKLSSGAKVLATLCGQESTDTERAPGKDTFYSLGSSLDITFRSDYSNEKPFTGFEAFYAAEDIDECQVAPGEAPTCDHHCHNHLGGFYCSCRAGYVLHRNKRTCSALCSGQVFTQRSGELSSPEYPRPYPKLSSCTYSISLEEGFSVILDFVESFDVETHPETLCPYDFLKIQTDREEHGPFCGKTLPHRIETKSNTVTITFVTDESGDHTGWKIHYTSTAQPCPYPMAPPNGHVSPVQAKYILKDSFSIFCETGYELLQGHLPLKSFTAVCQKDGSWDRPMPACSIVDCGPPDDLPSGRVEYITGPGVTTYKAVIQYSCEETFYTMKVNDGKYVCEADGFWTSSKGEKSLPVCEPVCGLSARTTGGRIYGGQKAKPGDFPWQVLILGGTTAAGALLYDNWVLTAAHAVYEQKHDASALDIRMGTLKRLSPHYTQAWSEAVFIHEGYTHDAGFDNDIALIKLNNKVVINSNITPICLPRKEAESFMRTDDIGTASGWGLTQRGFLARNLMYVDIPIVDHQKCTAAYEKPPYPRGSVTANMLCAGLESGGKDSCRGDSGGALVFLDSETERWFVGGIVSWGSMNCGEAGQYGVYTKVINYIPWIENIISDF

[3] = biological target: T2, human MASP-2; assay: cell-based or functional assay; remark: listed apart in the source
[4] = biological target: T3, African Green monkey MASP-2 (in African Green monkey serum) (African Green monkey); assay: cell-based or functional assay
[5] = biological target: T2, human MASP-2; assay: cell-based or functional assay; remark: listed apart in the source
[6] = biological target: T3, African Green monkey MASP-2 (in African …); assay: cell-based or functional assay; remark: listed apart in the source
[7] = biological target: T2, human MASP-2; assay: cell-based or functional assay; remark: listed apart in the source
[8] = biological target: T2, human MASP-2; assay: cell-based or functional assay; remark: listed apart in the source
[9] = biological target: T2, human MASP-2; assay: cell-based or functional assay; remark: listed apart in the source
[10] = biological target: rat MASP-2 (in rat serum) (rat, UniProt Q9JJS8 20-685); assay: cell-based or functional assay
Chain of rat MASP-2 (in rat serum) (Q9JJS8 other isoform, or with tags, fused parts or gaps limits assumed): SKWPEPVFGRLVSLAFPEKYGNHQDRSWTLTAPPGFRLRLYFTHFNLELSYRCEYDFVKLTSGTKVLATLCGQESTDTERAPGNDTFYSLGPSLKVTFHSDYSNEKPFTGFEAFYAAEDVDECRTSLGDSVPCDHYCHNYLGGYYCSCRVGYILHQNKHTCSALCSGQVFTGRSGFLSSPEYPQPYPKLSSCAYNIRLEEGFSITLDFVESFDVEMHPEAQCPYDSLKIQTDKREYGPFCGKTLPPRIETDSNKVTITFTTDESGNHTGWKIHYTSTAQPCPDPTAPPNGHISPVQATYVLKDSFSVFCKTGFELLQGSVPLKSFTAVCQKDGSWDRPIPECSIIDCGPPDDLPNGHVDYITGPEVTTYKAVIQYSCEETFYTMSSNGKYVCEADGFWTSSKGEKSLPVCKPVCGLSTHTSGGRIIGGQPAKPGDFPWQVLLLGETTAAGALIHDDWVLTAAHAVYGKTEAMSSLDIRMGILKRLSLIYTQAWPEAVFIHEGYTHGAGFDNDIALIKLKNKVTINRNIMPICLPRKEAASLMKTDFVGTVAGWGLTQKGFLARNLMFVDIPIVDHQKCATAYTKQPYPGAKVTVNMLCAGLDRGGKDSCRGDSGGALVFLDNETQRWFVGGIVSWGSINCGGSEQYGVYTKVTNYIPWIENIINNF

[11] = biological target: T3, African Green monkey MASP-2 (in African …); assay: cell-based or functional assay; remark: listed apart in the source
[12] = biological target: T2, human MASP-2; assay: cell-based or functional assay; remark: listed apart in the source
[13] = biological target: T1, human MASP-2A (catalytically inactive …); assay: ELISA on adsorbed human MASP-2A, purified scFv monomer
[14] = biological target: T1, human MASP-2A (catalytically inactive …); assay: titration ELISA on coated human MASP-2A ('Binding affinity'), scFv
[15] = biological target: T1, human MASP-2A (catalytically inactive …); assay: SPR (Biacore), scFv captured by anti-cMyc antibody, MASP-2A in solution
[16] = biological target: T1, human MASP-2A (catalytically inactive …); assay: ELISA, purified scFv titrated on physically adsorbed human MASP-2A
[17] = biological target: T1, human MASP-2A (catalytically inactive …); assay: SPR (Biacore), MASP-2A amine coupled to CM5 chip, scFv monomer in solution

T1 sequence (O00187 16-686 S633A): as the sequence (O00187 16-686) above, with S618A counted along it

B1: scFv mutagenesis clone #90 of 17D20 (scFv)
scFv: QVTLKESGPVLVKPTETLTLTCTVSGFSLSRGKMGVSWIRQPPGKALEWLAHIFSSDEKSYRTSLKSRLTISKDTSKNQVVLTMTNMDPVDTATYYCARIRPGGIDYWGQGTLVTVSSKLSGSASAPKLEEGEFSEARVQPVLTQPPSVSVSPGQTASITCSGDKLGDKFAYWYQQKPGHSPVLVIYQDNKRPSGIPGRFSGSNSGNTATLTISGTQAMDEADYYCQAWDSSTAVFGTGTKVTVLAAAGSEQKLISEEDLNSHHHHHH
[1]
  binding result: binds

B2: scFv mother clone 17N16 (scFv)
scFv: QVQLQQSGPGLVKPSQTLSLTCAISGDSVSSTSAAWNWIRQSPSRGLEWLGRTYYRSKWYNDYAVSVKSRITINPDTSKNQFSLQLNSVTPEDTAVYYCARDPFGVPFDIWGQGTMVTVSSKLSGSASAPKLEEGEFSEARVSYVLTQPPSVSVAPGQTARITCGGNNIGSKNVHWYQQKPGQAPVLVVYDDSDRPSGIPERFSGSNSGNTATLTVSRVEAGDEADYYCQVWDTTTDHVVFGGGTKLTVLAAAGSEQKLISEEDLNSHHHHHH
notes: also called 17N16mc; 17N16m
[2]
  Inhibitory activity in Human Serum IC50 (C3b deposition, 0.5% human serum): 15.4 nM
[3]
  Functional IC50, C3b deposition, human serum Exp #1: 15.4 nM
  Functional IC50, C3b deposition, human serum Exp #2: 65.4 nM
  Functional IC50, C3b deposition, human serum Exp #3: 24.8 nM
  Functional IC50, C3b deposition, human serum Exp #4: 19.2 nM
[4]
  Functional IC50, C3b deposition, non-human primate serum Exp #1: 95.6 nM
  Functional IC50, C3b deposition, non-human primate serum Exp #2: 58.8 nM
[5]
  C3 Assay IC50 in dilute serum (1%), human serum Exp #1: 19 nM
  C3 Assay IC50 in dilute serum (1%), human serum Exp #2: 24 nM
  C3 Assay IC50 in dilute serum (1%), human serum Exp #3: 65 nM
  C3 Assay IC50 in dilute serum (1%), human serum mean: 36 nM
[6]
  C3 Assay IC50, non-human primate serum Exp #1: 95 nM
  C3 Assay IC50, non-human primate serum Exp #2: 58 nM
  C3 Assay IC50, non-human primate serum mean: 76 nM
[7]
  C3 convertase assay using 1% human serum, IC50 (first experiment): 36.2 nM
  C3 convertase assay using 1% human serum, IC50 (second experiment): 77.6 nM
[8]
  Complement assay IC50: 8.8 nM
[9]
  IC50, C3c release, 1% human serum (first experiment): 65.3 nM
  IC50, C3c release, 1% human serum (second experiment): 73.5 nM
[10]
  IC50, C3c release, 0.375% rat serum (second experiment): 196 nM
[11]
  IC50, C3c release, 0.2% African Green serum (first experiment): 92.9 nM
  IC50, C3c release, 0.2% African Green serum (second experiment): 81.4 nM
[12]
  1% human serum C3 assay IC50: 68 nM
[13]
  Kd: 18.9 nM
[14]
  Kd: 18.9 nM
[15]
  Kd: 1.68 nM
[16]
  EC50 (read off the curve): ~0.9 nM
[17]
  Kd: 3560 nM
